Source: PMC8528048, “Chemoselective cysteine or disulfide modification via single atom substitution in chloromethyl acryl reagents” (Chemical Science, 2021)

System: Micrococcus lysodeikticus lyophilized cell suspensions
Assay: Lysozyme enzymatic assay: absorbance change at 450 nm of cell suspensions
Format: biochemical
Details: 0.01 mg/mL enzyme, 10 μL into 250 μL cell suspension 0.32 mg/mL, 66 mM phosphate buffer pH 6.2; A450 every minute for 15 minutes; ratio of slopes minus blank
Method: Lysozyme is an antimicrobial enzyme that is capable of hydrolyzing the 1,4-beta-linkages in the peptidoglycan of Gram-positive bacterial cell walls, thus leading to the lysis of bacteria (Fig. 8a). Therefore, the catalytic activity of modified lysozyme was assessed by investigation of the absorbance change at 450 nm of Micrococcus lysodeikticus lyophilized cell suspensions over time, where the activity of the modified lysozyme is proportional to their capability to hydrolyze the bacterial cell walls.[45] In comparison to native lysozyme, the disulfide-modified lysozyme Ly-PEG-Tz retained 86% of its activity (Fig. 8b, calculation details shown in Section 8.3 in ESI ^†).
Fig. 8 (a) The hydrolysis of 1,4-beta-linkages between N-acetyl-D-glucosamine (NAG) and N-acetylmuramic acid (NAM) residues in peptidoglycans of Gram-positive bacterial cell walls. The absorbance of the cell suspension at 450 nm was monitored to evaluate their catalytic activity and the rate of absorbance decrease was proportional to its activity. […]
The lysozyme enzymatic assay was performed according to the protocol form Sigma Aldrich’s technical bulletin. […] 250 μL of the cell suspensions was added to the 96-well plate and the absorbance was measured at 450 nm. According to the obtained absorbance, the concentration was carefully adjusted to ensure the absorbance at 450 nm between 0.6 and 0.7. […]

Substance | catalytic activity retained in comparison to native lysozyme
Ly-PEG-Tz: lysozyme (hen egg white) modified at the C6–C127 disulfide with PEG-tetrazine via compound 8 | 86%
Ly-PEG5-Tz: lysozyme statistically modified at lysines with Tz-PEG5-NHS; mixture of no, single and dual modification | Total loss of the activity
